From article PMC12479363 (Nature Immunology, 2025)

Biological target: SK56
Test: MST

B1: GSDMC-NT–GFP (domain or fragment)
chain: MPSMLERISKNLVKEIGSKDLTPVKYLLSATKLRQFVILRKKKDSRSSFWEQSDYVPVEFSLNDILEPSSSVLETVVTGPFHFSDIMIQKHKADMGVNVGIEVSVSGEASVDHGCSLEFQIVTIPSPNLEDFQKRKLLDPEPSFLKECRRRGDNLYVVTEAVELINNTVLYDSSSVNILGKIALWITYGKGQGQGESLRVKKKALTLQKGMVMAYKRKQLVIKEKAILISDDDEQRTFQD
Binder B1 has a Kd of ~220 nM.
